# In patent US20230416825A1:
# Like-named read-outs stand apart in the source and are kept apart here.
# What was measured:
# [1] = target: Recombinant human KLK5 (Genentech) (human) (UniProt Q9Y337); assay: cell-based or functional assay
# [2] = target: Recombinant human KLK5 (Genentech) (human) (UniProt Q9Y337); assay: cell-based or functional assay; remark: listed apart in the source
# Sequence of UniProt Q9Y337 (Q9Y337 67-293 limits assumed, form in doubt): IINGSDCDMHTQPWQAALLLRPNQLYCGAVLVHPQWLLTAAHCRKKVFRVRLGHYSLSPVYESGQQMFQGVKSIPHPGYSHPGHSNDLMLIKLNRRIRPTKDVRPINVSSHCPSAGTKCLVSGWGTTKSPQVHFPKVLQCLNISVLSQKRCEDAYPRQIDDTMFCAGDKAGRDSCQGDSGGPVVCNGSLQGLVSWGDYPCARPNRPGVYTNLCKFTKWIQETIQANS
"IC50, LC/MS assay of KLK5 (0.5 nM) cleavage of pro-KLK1 [1] [nM]","IC50, LC/MS assay of KLK5 (5 nM) cleavage of pro-KLK7 (15 nM) [1] [nM]","direct KLK5 activity assay at 20, 10, 5 and 2.5 nM KLK5: reduction in cleavage of the fluorescent peptide substrate [1] [%]","maximum KLK5 inhibition, LC/MS assay of KLK5 (0.5 nM) cleavage of pro-KLK1 [1] [%]","IC50, LC/MS assay of KLK5 (0.5 nM) cleavage of pro-KLK1 [2] [nM]","IC50, LC/MS assay of KLK5 (5 nM) cleavage of pro-KLK7 (15 nM) [2] [nM]",Molecule
0.34,1.86,30,40,–,–,"mAb1108 (Monoclonal Mouse IgG2b Clone #193318, R & D Systems, Minneapolis, MN) (antibody)"
–,–,–,–,0.58,1.13,"SPINK9 (I20-C86.C22S.H48R.M49E)-Fc (Fc fusion, not shown: a dimerising Fc or GST) IESAKQTKQMVDCSHYKKLPPGQQRFCHREYDPICGSDGKTYKNDCFFCSKVKKTDGTLKFVHFGKC"
